Data as given in patent publication US20200362047A1 (CRESCENDO BIOLOGICS, published 2020).
Numbering of substitutions follows the chain as printed.

B1: Humabody VH 1.75 (VHH)
VHH: QVQLVESGGGLVQPGGSLRLSCAASGFTFSDYYMSWIRQAPGKGLEWVANINQDGSERYYVDSVKGRFTISRDNAKNSLYLQMSSLRAEDTAVYFCARGGEGYGVDHYGLDVSGQGTTVTVSS
notes: human single VH domain
B2: Humabody VH 1.81 (VHH)
VHH: B1 VHH with S25T, F29L, D31N, Y33W, S35N, I37V, K65E, N77S, S85N
notes: human single VH domain
B3: Humabody VH 1.39 (VHH)
VHH: EVQLVESGGGLVQPGGSLRLSCAASGFTFSNYWMNWVRQAPGKELEWVANINQDESEKYYVDSVKGRFTVSRDNAKNSLFLQMNSLRADDTAVYYCARGGFGYGDSHFGMDVWGQGTTVTVSS
notes: human single VH domain
B4: Humabody VH 1.63 (VHH)
VHH: EVQLVESGGGLVQPGGSLSLSCAASGFTFRSFWMNWVRQAPGKEAEWVANINQDGSEKYYVDSVKGRFTISRDNAKNSLFLQMNSLRAEDTAVYYCARGGPDYGDLHYGMDVWGQGTTVTVSS
notes: human single VH domain
B5: Humabody VH 1.16 (VHH)
VHH: EVQLVESGGGLVQPGGSLRLSCVASGFTFSNYWMMWFRQAPGKGLEWVANINQDGSEKYFVDSVEGRFTISRDNAKNSLYLQMNSLRAEDTAVYYCARGGDGYSSSHYGTDVWGQGTTVTVSS
notes: human single VH domain
B6: Humabody VH 2.20 (VHH)
VHH: EVQLVESGGGLVKPGGSLRLSCAASGFTFSDYYMSWIRQAPGKGLEWVSHISSSGSTIDYADSVKGRFTISRDNAKNSLYLQMNSLRAEDTAVYYCAREDPRMPGTFDFDNWGQGTLVTVSS
notes: human single VH domain
B7: Humabody VH 2.26 (VHH)
VHH: B6 VHH with A23T, S30T, I37F, S56T, E89D, P101I, F107T
notes: human single VH domain
B8: Humabody VH 1.71 (VHH)
VHH: EVQLVESGGGLVQPGGSLRLSCAASGFTFGNYWMIWVRQAPGKELEWLANINQNGSERYYVDSVQGRFTISRDNAKNSLYLQMNSLRAEDTAVYYCARGGADYSNSHYGMDVSGQGTTVTVSS
notes: human single VH domain
B9: 2.1-6GS-2.1-6GS-2.1 (VHH)
chain: EVQLVESGGGLVKPGGSLRVSCAASGFTFSDYYMSWFRQAPGKGLEWVSYISGSGDIIDYADSVKGRFTISRDNAKNSLYLQMNNLRAEDTAVYHCAREDSRLTGTTDFDNWGQGTLVTVSSGGGGSGGGGSGGGGSGGGGSGGGGSGGGGSEVQLVESGGGLVKPGGSLRVSCAASGFTFSDYYMSWFRQAPGKGLEWVSYISGSGDIIDYADSVKGRFTISRDNAKNSLYLQMNNLRAEDTAVYHCAREDSRLTGTTDFDNWGQGTLVTVSSGGGGSGGGGSGGGGSGGGGSGGGGSGGGGSEVQLVESGGGLVKPGGSLRVSCAASGFTFSDYYMSWFRQAPGKGLEWVSYISGSGDIIDYADSVKGRFTISRDNAKNSLYLQMNNLRAEDTAVYHCAREDSRLTGTTDFDNWGQGTLVTVSS
notes: trivalent tandem VH, monospecific for CD137; also called trivalent Humabody VH 2.1; not shown: His tag
B10: 1.78-6GS-4.1 (bispecific antibody)
chain: QVQLVESGGGLVQPGGSLRLSCAATGFTLSNYWMNWVRQAPGKGLEWVANINQDGSERYYVDSVKGRFTISRDNAKNSLYLQMSSLRAEDTAVYFCARGGEGYGVDHYGLDVSGQGTTVTVSSGGGGSGGGGSGGGGSGGGGSGGGGSGGGGSEVQLVESGGGVVQPGRSLRLSCAASGFSFSGYGMHWVRQAPGKGLEWVAYISYDGSNKYYADSVKGRFTISRDNSKNTLYLQMNSLRAEDTAVYYCAKDPAWGLRLGESSSYDFDIWGQGTMVTVSS
notes: built from its printed name (1.78, 6GS linker, 4.1); not shown: His tag
B11: 1.1-6GS-1.1-6GS-1.1 (VHH)
chain: EVQLVESGGGLVQPGGSLRLSCAASGFTFSSHWMTWFRQAPGKGLEWVAHIKEDGSEKYYEDSVEGRFTVSRDNAKNSVYLQMNSLRAEDTAVYYCARGGDGYSDSHFGVDVWGQGTTVTVSSGGGGSGGGGSGGGGSGGGGSGGGGSGGGGSEVQLVESGGGLVQPGGSLRLSCAASGFTFSSHWMTWFRQAPGKGLEWVAHIKEDGSEKYYEDSVEGRFTVSRDNAKNSVYLQMNSLRAEDTAVYYCARGGDGYSDSHFGVDVWGQGTTVTVSSGGGGSGGGGSGGGGSGGGGSGGGGSGGGGSEVQLVESGGGLVQPGGSLRLSCAASGFTFSSHWMTWFRQAPGKGLEWVAHIKEDGSEKYYEDSVEGRFTVSRDNAKNSVYLQMNSLRAEDTAVYYCARGGDGYSDSHFGVDVWGQGTTVTVSS
notes: trivalent tandem VH, monospecific for CD137; also called trivalent Humabody VH 1.1; not shown: His tag
B12: 4.1-6GS-1.78 (bispecific antibody)
chain: EVQLVESGGGVVQPGRSLRLSCAASGFSFSGYGMHWVRQAPGKGLEWVAYISYDGSNKYYADSVKGRFTISRDNSKNTLYLQMNSLRAEDTAVYYCAKDPAWGLRLGESSSYDFDIWGQGTMVTVSSGGGGSGGGGSGGGGSGGGGSGGGGSGGGGSQVQLVESGGGLVQPGGSLRLSCAATGFTLSNYWMNWVRQAPGKGLEWVANINQDGSERYYVDSVKGRFTISRDNAKNSLYLQMSSLRAEDTAVYFCARGGEGYGVDHYGLDVSGQGTTVTVSS
notes: built from its printed name (4.1, 6GS linker, 1.78); not shown: His tag

biological target: T1, human CD137-human Fc chimeric protein (Acro Biosystems cat no. 41B-H5258) (human, UniProt Q07011 24-186); assay: BLI (Octet RED384), CD137-Fc on Protein G sensors, 1:1 model
T1 construct: Bought protein; The Octet Protein G and Biacore experiments name no catalogue number; also called human CD137Fc recombinant protein; human CD137-Fc recombinant protein; not shown: human IgG1 Fc tag
Method: Binding kinetics of purified VH, bivalent VH and trivalent VH molecules were measured on a ForteBio Octet RED 384 instrument. CD137-Fc tagged protein was diluted to 3 μg/ml in kinetics buffer (0.1% BSA, 0.02% Tween, 1×PBS) and coupled to Protein G biosensors (ForteBio cat no. 18-5082) via the Fc tag. VH were serially diluted (typically 1:2 dilution series starting with 50 nM, VH at the highest concentration) and binding to the CD137-Fc-coupled Protein G biosensors measured. Binding kinetics were determined from the (blank subtracted) sensor gram trace using 1:1 binding models and ForteBio Octet Data Analysis 9.0 software. Example kinetic and binding affinity data obtained is shown Table 10 (monovalent VH) and FIG. 1 (bivalent and trivalent molecules).

| Kd | koff | kon | Binder |
| --- | --- | --- | --- |
| 0.75 nM | 0.000353 s⁻¹ | 474000 M⁻¹ s⁻¹ | B1 |
| 0.16 nM | 0.000171 s⁻¹ | 1.06e+06 M⁻¹ s⁻¹ | B2 |
| 0.9 nM | 0.000505 s⁻¹ | 559000 M⁻¹ s⁻¹ | B3 |
| 2.8 nM | 0.000596 s⁻¹ | 217000 M⁻¹ s⁻¹ | B4 |
| 2.4 nM | 0.00145 s⁻¹ | 610000 M⁻¹ s⁻¹ | B5 |
| 1.2 nM | 0.002 s⁻¹ | 1.64e+06 M⁻¹ s⁻¹ | B6 |
| 4.7 nM | 0.00842 s⁻¹ | 1.8e+06 M⁻¹ s⁻¹ | B7 |
| 0.091 nM | 2.84e-05 s⁻¹ | 313000 M⁻¹ s⁻¹ | B8 |

biological target: T2, human CD137 expressed on the surface of CHO cells (human, UniProt Q07011 24-255); assay: FMAT ligand inhibition, CD137 Ligand on CHO human CD137 cells
T2 construct: Also used for the Jurkat reporter cells that express human CD137 (functional rows); also called CHO human CD137 cells; CHO huCD137
T2 sequence (Q07011 24-255 limits assumed): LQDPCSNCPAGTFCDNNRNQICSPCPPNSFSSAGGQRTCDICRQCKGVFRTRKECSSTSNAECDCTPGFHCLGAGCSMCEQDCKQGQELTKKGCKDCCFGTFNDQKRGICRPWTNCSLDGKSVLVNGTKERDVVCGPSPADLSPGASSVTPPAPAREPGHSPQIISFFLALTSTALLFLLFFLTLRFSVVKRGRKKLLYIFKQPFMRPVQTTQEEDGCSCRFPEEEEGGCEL
Method: In parallel to the binding assay, periplasmic extracts were tested for their ability to inhibit the interaction of human CD137 ligand protein with CHO human CD137 cells in an FMAT format. Total binding controls containing diluted periplasmic extract sample buffer and non-specific binding controls containing excess non-Fc tagged competitor were set up on each plate for data normalisation. Fluorescence signal was measured using the TTP Mirrorball and the FL2 median mean fluorescence intensity of gated used for the data normalisation. The data was expressed as a % of the total binding control (% control) after subtraction of the background signal determined from the non-specific binding control wells.
The ability of purified Humabody VH to inhibit the binding of CD137 Ligand to CHO human CD137 cells was measured in the FMAT ligand inhibition assay essentially as described in Example 6. VH inhibited the binding of human CD137 Ligand to human CD137.

| IC50 | Binder |
| --- | --- |
| 0.42 nM | B9 |
| 2.8 nM | B10 |
| 0.2 nM | B11 |
| 3.7 nM | B12 |
| 1.7 nM | B6 |
| 8.5 nM | B7 |

biological target: T3, CD137 on pre-stimulated human CD8+ T cells (human, UniProt Q07011 24-255); assay: flow cytometry, PMA/ionomycin-stimulated human CD8+ T cells, mean of 2-3 donors
T3 construct: also called pre-stimulated CD8+ cells; primary T cells
T3 sequence (Q07011 24-255 limits assumed): as above
Method: Binding to primary T cells was measured using flow cytometry. Peripheral blood mononuclear cells (PBMCs) were isolated from human blood by density gradient centrifugation then CD8+ T cells purified using a negative selection isolation kit according to the manufacturer's protocol (Miltenyi Biotech cat no 130-042-401). T-cells were stimulated PMA/Ionomycin for 48-72 hours in RPMI media supplemented with 10% FBS, 2 mM Glutamine, 1× Pen/Strep. Cells were transferred into 96 well plates, blocked for 10 mins with staining buffer (PBS/1% BSA/0.05% Sodium Azide) then incubated with serially diluted VH in staining buffer (PBS/1% BSA) for 30 mins-1 hour at 4° C. Cells were washed by centrifugation then VH binding detected using Anti His antibody (Millipore 05-949) and Goat Anti Mouse Alexa Fluor-488 (Jackson ImmunoResearch cat no. 115-545-071). A Live Dead near IR stain (Molecular Probes cat no. L10119) was used for discrimination of live cells. After further washing cells were fixed and fluorescence measured by flow cytometry.

| EC50 | Binder |
| --- | --- |
| 2.8 nM | B7 |

biological target: T2, human CD137 expressed on the surface of …; assay: FMAT, CHO human CD137 cells
Method: Binding of His-tagged molecules to CHO human CD137, CHO parent, CHO human PSMA, DU145 PSMA and DU145 parent cells was assessed using Fluorescence Microvolume Assay Technology (FMAT). All reagents were prepared in FMAT assay buffer (pH 7.4) containing PBS, 0.1% Bovine Serum Albumin, 0.05% Sodium Azide. Serially diluted samples were transferred into 384 well black clear-bottomed assay plates (Costar cat. no. 3655) and incubated for a minimum of 2 hours at room temperature with 1.5 nM Anti-His (Millipore cat. no. 05-949), […] Goat Anti-Mouse Alexa Fluor-488 (Jackson ImmunoResearch cat. no. 115-545-071) and 2000 cells/well pre-stained with DRAQ5 (Thermo Scientific cat. no. 62251). Fluorescence emission was then measured on the TTP Mirrorball plate reader in the FL2 (502 nm-537 nm) and FL5 (677-800 nm) channels following excitation at 488 nm and 640 nm. Data was gated on FL5 perimeter and peak intensity and the FL2 median mean fluorescence intensity of the gated data used for determination of VH binding. Monovalent CD137 specific Humabody® VH, bispecific and trispecific molecules with a CD137 binding arm bound to CHO CD137 expressing cells. Monovalent PSMA specific Humabody® VH, bispecific and trispecific molecules with a PSMA binding arm bound to PSMA expressing cells.

| EC50 | Binder |
| --- | --- |
| 0.18 nM | B7 |
